Reference: publication PMC3229523, “Identification of Lactoferricin B Intracellular Targets Using an Escherichia coli Proteome Chip” (PLoS ONE, 2011)
Ends that are not written are not given here. * marks the point of attachment. Biotin = O=C1N[C@H]2[C@H](CS[C@H]2CCCCC(=O)*)N1

Legend:
Test in all cases: peptide or protein array; E. coli proteome chip: purified His-tagged proteins printed in duplicate on Fullmoon slides, blocked with 1% BSA; 10 nM N-terminal biotinylated LfcinB with 1% BSA, room temperature, 1 h; detected with DyLight 649-labeled streptavidin, ratio to DyLight 549-labeled anti-His antibody; ProCAT normalisation, local cut-off; triplicate chips
Conditions in all cases: both partners purified
RplE = RplE (E. coli K-12, UniProt P62399 1-179)
HolC = biological target: T1, HolC (E. coli K-12, UniProt P28905 1-147)
T1 construct: HolC, E. coli K-12
T1 sequence (P28905 whole entry): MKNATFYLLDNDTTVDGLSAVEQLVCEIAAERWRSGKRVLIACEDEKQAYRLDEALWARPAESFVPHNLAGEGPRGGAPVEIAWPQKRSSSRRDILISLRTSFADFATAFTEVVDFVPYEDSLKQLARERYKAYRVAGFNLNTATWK

InfC = biological target: T2, InfC (E. coli K-12, UniProt P0A707 1-180)
T2 construct: InfC, E. coli K-12
T2 sequence (looked up): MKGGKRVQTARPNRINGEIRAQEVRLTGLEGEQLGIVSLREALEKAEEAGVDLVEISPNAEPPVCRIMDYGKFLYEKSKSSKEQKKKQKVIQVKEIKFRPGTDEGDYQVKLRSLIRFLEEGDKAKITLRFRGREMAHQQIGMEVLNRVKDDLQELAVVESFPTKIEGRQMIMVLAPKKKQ

YibB = biological target: T3, YibB (E. coli K-12, UniProt P25666 1-285)
T3 construct: YibB, E. coli K-12
T3 sequence (looked up): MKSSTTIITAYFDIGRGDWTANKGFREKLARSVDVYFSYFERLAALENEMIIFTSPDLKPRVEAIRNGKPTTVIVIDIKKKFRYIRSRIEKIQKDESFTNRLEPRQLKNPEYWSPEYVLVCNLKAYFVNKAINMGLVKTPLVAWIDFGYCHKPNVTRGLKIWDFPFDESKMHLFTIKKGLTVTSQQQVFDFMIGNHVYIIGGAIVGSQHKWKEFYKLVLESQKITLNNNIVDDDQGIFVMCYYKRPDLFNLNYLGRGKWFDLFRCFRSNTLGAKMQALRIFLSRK

[1] = biological target: T4, phosphoenolpyruvate carboxylase (E. coli K-12, UniProt P00864 1-883)
T4 construct: Ppc, phosphoenolpyruvate carboxylase, E. coli K-12; also called Ppc
T4 sequence (looked up): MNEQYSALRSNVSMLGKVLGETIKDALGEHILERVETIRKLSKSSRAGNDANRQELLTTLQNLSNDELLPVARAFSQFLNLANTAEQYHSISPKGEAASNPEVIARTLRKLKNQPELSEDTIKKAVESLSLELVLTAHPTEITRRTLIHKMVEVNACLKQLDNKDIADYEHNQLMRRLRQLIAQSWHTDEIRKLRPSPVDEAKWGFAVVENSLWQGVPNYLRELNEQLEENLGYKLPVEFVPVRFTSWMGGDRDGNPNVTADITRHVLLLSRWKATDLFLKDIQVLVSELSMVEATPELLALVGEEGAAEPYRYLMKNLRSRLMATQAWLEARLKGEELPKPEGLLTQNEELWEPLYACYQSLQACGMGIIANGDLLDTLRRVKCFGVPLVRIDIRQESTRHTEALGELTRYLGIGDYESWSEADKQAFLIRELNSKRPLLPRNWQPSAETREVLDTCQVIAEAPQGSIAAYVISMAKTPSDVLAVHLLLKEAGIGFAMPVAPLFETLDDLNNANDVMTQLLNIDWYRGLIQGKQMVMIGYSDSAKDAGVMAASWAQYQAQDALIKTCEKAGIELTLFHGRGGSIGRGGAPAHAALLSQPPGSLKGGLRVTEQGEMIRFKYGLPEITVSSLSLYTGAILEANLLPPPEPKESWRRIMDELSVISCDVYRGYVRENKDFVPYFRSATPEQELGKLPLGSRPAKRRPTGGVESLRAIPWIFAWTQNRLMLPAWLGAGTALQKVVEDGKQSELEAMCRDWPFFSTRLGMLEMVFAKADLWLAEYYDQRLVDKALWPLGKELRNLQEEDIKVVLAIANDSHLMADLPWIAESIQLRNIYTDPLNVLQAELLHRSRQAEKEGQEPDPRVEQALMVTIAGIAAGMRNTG

YhgA = biological target: T5, YhgA (E. coli K-12, UniProt P31667 1-292)
T5 construct: YhgA, E. coli K-12
T5 sequence (looked up): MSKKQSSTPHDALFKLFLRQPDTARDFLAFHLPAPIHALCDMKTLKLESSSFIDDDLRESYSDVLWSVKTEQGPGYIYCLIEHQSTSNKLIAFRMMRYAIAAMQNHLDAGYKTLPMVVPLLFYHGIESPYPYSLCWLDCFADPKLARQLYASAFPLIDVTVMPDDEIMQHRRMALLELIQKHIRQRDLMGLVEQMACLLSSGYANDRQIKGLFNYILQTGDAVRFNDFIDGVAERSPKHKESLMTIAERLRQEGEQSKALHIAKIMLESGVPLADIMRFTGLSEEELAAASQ

Measured: binding result

B1: N-terminal biotinylated Lactoferricin B (peptide, UniProt P24627 36-60, looked up)
peptide: Biotin-FKCRRWQWRMKKLGAPSITCVRRAF
modifications: ends and bridges not checked
notes: lactoferricin B (LfcinB), cationic antimicrobial peptide of 25 amino acids; also called biotinylated LfcinB; biotin-labeled LfcinB; source: bought: Kelowna Inc
binds: all assays above
